Assay results as given in patent US7566535B2, “Enhanced oligonucleotide-mediated nucleic acid sequence alteration” (University of Delaware, priority 2002, dated 2009).
“And” between values parts separate entries of the source, which are not always exact repeats. Equal values may be shown once. In the oligonucleotide strings, read from the 5' end, every base follows the letter of its sugar. An asterisk marks phosphorothioate; unmarked linkages are phosphodiester. Other units and linkages are bracketed, terminal groups are in braces. A string of capitals states the bases alone. d = 2'-deoxy (DNA)

Columns and labels:
pAURHYG(x)eGFP [1] = assay: Hygromycin gene correction in yeast LSY678 with or without trichostatin A
[2] = system: human β-globin gene in YAC; assay: Dual targeting: second-site editing of β-globin gene in YAC, SNaPshot and sequencing; details: HU, TSA, RAD51 overexpression
pAURHYG(x)eGFP [3] = assay: Strand bias of hygromycin gene correction in rad1 and rad10 yeast mutants
CYC1 gene = CYC1 gene repair in diploid yeast strains, growth on glycerol (YPG)
pAURNeo(−)FlAsH plasmid = assay: FlAsH fluorescence assay of neomycin phosphotransferase gene correction in yeast
[4] = system: mutant kanamycin gene in plasmid pK^Sm4021; assay: Gene repair of plasmid pK^Sm4021 in yeast cell-free extracts, kan^r/amp^r colony readout in E. coli DH10B
[5] = YMH51 (wild-type CYC1), 5 μg oligo
[6] = YMH55 with PYNMRE11, 5 μg oligo
[7] = YMH55 with PYNRAD51, 5 μg oligo
[8] = YMH55 with PYNRAD52, 5 μg oligo
[9] = YMH55 with PYNRAD54, 5 μg oligo
[10] = YMH55 with PYNRAD55, 5 μg oligo
[11] = YMH55 with pYN132 (empty vector), 5 μg oligo
[12] = YMH55 with pYNβ (lambda beta protein expression), 5 μg oligo

Molecule: CC(/C=C/C(=O)NO)=C\[C@@H](C)C(=O)c1ccc(N(C)C)cc1 [trichostatin A, reference compound]
- increase of efficiency of gene alteration (pAURHYG(x)eGFP [1]; 50 μg/mL during the recovery period): ≥ 3 fold
- increase of efficiency of gene alteration (pAURHYG(x)eGFP [1]; 50 μg/mL for four hours prior to electroporation): up to several-fold

B1: βThal2: 71mer with three phosphorothioate linkages at 5′ and 3′ ends directing T to C in β-globin, SEQ ID NO: 28 (nucleic acid)
DNA: dT*dA*dA*dCdGdGdCdAdGdAdCdTdTdCdTdCdCdAdCdAdGdGdAdGdTdCdAdGdGdTdGdCdAdCdCdGdTdGdGdTdGdTdCdTdGdTdTdTdGdAdGdGdTdTdGdCdTdAdGdTdGdAdAdCdAdCdAdG*dT*dT*dG
- cells with corrected hygromycin also containing the edited β-globin gene [2]: approximately 10%

B2: Kan70T: non-specific, control oligonucleotide not complementary to the target sequence, SEQ ID NO: 11 (nucleic acid)
DNA: CATCAGAGCAGCCAATTGTCTGTTGTGCCCAGTCGTAGCCGAATAGCCTCTCCACCCAAGCGGCCGGAG
modifications: listed as DNA, chemistry not given here
- Colonies on Hygromycin (pAURHYG(x)eGFP [3]; rad1 mutant): 0
- Colonies on Hygromycin (pAURHYG(x)eGFP [3]; rad10 mutant): 0

B3: Cyc1/70T: modified single-stranded vector targeting the transcribed strand of mutant CYC1, three phosphorothioated linkages at each terminus, SEQ ID NO: 21 (nucleic acid)
DNA: dA*dG*dG*dTdGdCdTdAdCdAdCdTdTdTdTdCdAdAdGdAdCdTdAdGdAdTdGdTdCdTdAdCdAdAdTdGdCdCdAdCdAdCdCdGdTdGdGdAdAdAdAdGdGdGdTdGdGdCdCdCdAdCdAdTdAdAdG*dG*dT*dT
- No. of YPG Plate Colonies (CYC1 gene; [5]): lawn
- C.E. (CYC1 gene; YMH52, 5 μg oligo): 0.17 ×10^−4
- No. of YPG Plate Colonies (CYC1 gene; YMH52, 5 μg oligo): 57
- C.E. (CYC1 gene; YMH53, 5 μg oligo): 0.74 ×10^−4
- No. of YPG Plate Colonies (CYC1 gene; YMH53, 5 μg oligo): 281
- Average C.E. (CYC1 gene; YMH53 with PYNMRE11 + PYNXRS2): .263 ×10^−5
- Fold (CYC1 gene; YMH53 with PYNMRE11 + PYNXRS2): 8.29
- No. of YPG Plate Colonies (CYC1 gene; YMH53 with PYNMRE11 + PYNXRS2): 155
- Average C.E. (CYC1 gene; YMH53 with PYNRAD52 + PYNRAD54): .185 ×10^−5
- Fold (CYC1 gene; YMH53 with PYNRAD52 + PYNRAD54): 5.82
- No. of YPG Plate Colonies (CYC1 gene; YMH53 with PYNRAD52 + PYNRAD54): 103
- Average C.E. (CYC1 gene; YMH53 with pYN132): 0.03169 ×10^−5
- Fold (CYC1 gene; YMH53 with pYN132): 1
- C.E. (CYC1 gene; YMH54, 5 μg oligo): 0.14 ×10^−4
- No. of YPG Plate Colonies (CYC1 gene; YMH54, 5 μg oligo): 43
- C.E. (CYC1 gene; YMH55, 5 μg oligo): 0.38 ×10^−4
- No. of YPG Plate Colonies (CYC1 gene; YMH55, 5 μg oligo): 116

B4: Cyc1/70NT: modified single-stranded vector targeting the nontranscribed strand of mutant CYC1, three phosphorothioated linkages at each terminus, SEQ ID NO: 22 (nucleic acid)
DNA: dA*dA*dC*dCdTdTdAdTdGdTdGdGdGdCdCdAdCdCdCdTdTdTdTdCdCdAdCdGdGdTdGdTdGdGdCdAdTdTdGdTdAdGdAdCdAdTdCdTdAdGdTdCdTdTdGdAdAdAdAdGdTdGdTdAdGdCdA*dC*dC*dT
- No. of YPG Plate Colonies (CYC1 gene; [5]): lawn
- C.E. (CYC1 gene; YMH52, 5 μg oligo): 0.47 ×10^−4
- No. of YPG Plate Colonies (CYC1 gene; YMH52, 5 μg oligo): 186
- C.E. (CYC1 gene; YMH53, 5 μg oligo): 0.21 ×10^−4
- No. of YPG Plate Colonies (CYC1 gene; YMH53, 5 μg oligo): 73
- Average C.E. (CYC1 gene; YMH53 with PYNMRE11 + PYNXRS2): 0.322 ×10^−5
- Fold (CYC1 gene; YMH53 with PYNMRE11 + PYNXRS2): 57.48
- No. of YPG Plate Colonies (CYC1 gene; YMH53 with PYNMRE11 + PYNXRS2): 178
- Average C.E. (CYC1 gene; YMH53 with PYNRAD52 + PYNRAD54): 0.179 ×10^−5
- Fold (CYC1 gene; YMH53 with PYNRAD52 + PYNRAD54): 32.01
- No. of YPG Plate Colonies (CYC1 gene; YMH53 with PYNRAD52 + PYNRAD54): 109
- Average C.E. (CYC1 gene; YMH53 with pYN132): 0.0056 ×10^−5
- Fold (CYC1 gene; YMH53 with pYN132): 1
- C.E. (CYC1 gene; YMH54, 5 μg oligo): 0.28 ×10^−4
- No. of YPG Plate Colonies (CYC1 gene; YMH54, 5 μg oligo): 80
- C.E. (CYC1 gene; YMH55, 5 μg oligo): 2.99 ×10^−4
- No. of YPG Plate Colonies (CYC1 gene; YMH55, 5 μg oligo): 895
- Average C.E. (CYC1 gene; [6]): 0.04 ×10^−5
- Fold (CYC1 gene; [6]): 1.1
- No. of YPG Plate Colonies (CYC1 gene; [6]): 25
- Average C.E. (CYC1 gene; [7]): 0.52 ×10^−5
- Fold (CYC1 gene; [7]): 14.8
- No. of YPG Plate Colonies (CYC1 gene; [7]): 260
- Average C.E. (CYC1 gene; [8]): 0.22 ×10^−5
- Fold (CYC1 gene; [8]): 6.2
- No. of YPG Plate Colonies (CYC1 gene; [8]): 108
- Average C.E. (CYC1 gene; [9]): 0.09 ×10^−5
- Fold (CYC1 gene; [9]): 2.4
- No. of YPG Plate Colonies (CYC1 gene; [9]): 42
- Average C.E. (CYC1 gene; [10]): 0.78 ×10^−5
- Fold (CYC1 gene; [10]): 22.2
- No. of YPG Plate Colonies (CYC1 gene; [10]): 410
- Average C.E. (CYC1 gene; YMH55 with PYNXRS2, 5 μg oligo): 0.03 ×10^−5
- Fold (CYC1 gene; YMH55 with PYNXRS2, 5 μg oligo): 1.34
- No. of YPG Plate Colonies (CYC1 gene; YMH55 with PYNXRS2, 5 μg oligo): 22
- Average C.E. (CYC1 gene; [11]): 0.04 ×10^−5
- Fold (CYC1 gene; [11]): 1
- No. of YPG Plate Colonies (CYC1 gene; [11]): 19
- Average C.E. (CYC1 gene; [12]): 0.32 ×10^−5
- Fold (CYC1 gene; [12]): 9.1
- No. of YPG Plate Colonies (CYC1 gene; [12]): 166

B5: beta protein: protein expressed from the bet gene of the Red recombination system of bacteriophage lambda; expressed in yeast from pYNTβ (protein, UniProt P03698 1-261, looked up)
Recombination protein bet: MSTALATLAGKLAERVGMDSVDPQELITTLRQTAFKGDASDAQFIALLIVANQYGLNPWTKEIYAFPDKQNGIVPVVGVDGWSRIINENQQFDGMDFEQDNESCTCRIYRKDRNHPICVTEWMDECRREPFKTREGREITGPWQSHPKRMLRHKAMIQCARLAFGFAGIYDKDEAERIVENTAYTAERQPERDITPVNDETMQEINTLLIALDKTWDDDLLPLCSQIFRRDIRASSELTQAEAVKALGFLKQKAAEQKVAA
- correction efficiency per 10^5 transformants (CYC1 gene; beta protein expression, other experiments): 0.326

B6: KanGG: chimeric, RNA-DNA double-hairpin oligonucleotide (SEQ ID NO: 1) correcting the mutant kanamycin gene of pK^Sm4021 (nucleic acid)
chain: GCUAUUCGGCUAGGACUGGGCACAAUUUUTTGTGCCCAGTCGTAGCCGAATAGCCTCTCCUUUUGGAGAG
modifications: chimeric RNA-DNA double hairpin, segment chemistry not given here
- corrected cells by green fluorescence (confocal microscopy) (pAURNeo(−)FlAsH plasmid; LSY678 and LSY378): many corrected cells
- number of cells exhibiting green fluorescence (pAURNeo(−)FlAsH plasmid; strain lacking RAD52 relative to LSY678): significant increase
- Relative Frequency kan^r/amp^r ([4]; 0.5 μg oligo, 1 μg plasmid, 10 μg LSY678 extract): 1.89 ×10^−5
- Relative Frequency kan^r/amp^r ([4]; 1 μg oligo, 1 μg pK^Sm4021, no extract): 0.002 ×10^−5
- Relative Frequency kan^r/amp^r ([4]; 1 μg oligo, 1 μg plasmid, 1 μg LSY678 extract): 0.32 ×10^−5
- Relative Frequency kan^r/amp^r ([4]; 1 μg oligo, 1 μg plasmid, 10 μg LSY678 extract): 3.66 ×10^−5 and 2.78 ×10^−5
- Relative Frequency kan^r/amp^r ([4]; 1 μg oligo, 1 μg plasmid, 20 μg LSY678 extract): 7.601 ×10^−5
- Relative Frequency kan^r/amp^r ([4]; 1 μg oligo, no plasmid, 20 μg LSY678 extract): 0.0 ×10^−5
- Relative Frequency kan^r/amp^r ([4]; 2.0 μg oligo, 1 μg plasmid, 10 μg LSY678 extract): 4.005 ×10^−5
- Relative Correction Efficiency ([4]; 10 μg extract LSY386 (Δrad52)): 25.7 and 26.7 and 19.9
- Relative Correction Efficiency ([4]; 10 μg extract LSY402 (Δrad51)): 5.15
- Relative Correction Efficiency ([4]; 10 μg extract LSY407 (Δrad57)): 2.13
- Relative Correction Efficiency ([4]; 10 μg extract LSY678 (wild type)): 1.17 and 1.08 and 1.63
- Relative Correction Efficiency ([4]; 10 μg extract LSY814 (Δmsh2)): 0.79
- Relative Correction Efficiency ([4]; 10 μg extract LSY837 (Δrad59)): 0.35
- Relative Correction Efficiency ([4]; 10 μg extract XS827-18C (Δrad54)): 1.36
- Relative Correction Efficiency ([4]; 10 μg extract YDR076W (Δrad55)): 1.27
- Relative Correction Efficiency ([4]; 10 μg extract YELO37C (Δrad23)): 1.04
- level of repair below wild-type levels ([4]; LSY678 extract expressing RAD52): 4 fold
- Relative Correction Efficiency ([4]; extract LSY386•p52 (Δrad52 expressing RAD52)): 2.31
- Relative Correction Efficiency ([4]; extract LSY678•p52 (wild type expressing RAD52)): 0.41
- Relative Correction Efficiency ([4]; extracts LSY386 (2 μg) + LSY678 (8 μg)): 2.91
- Relative Correction Efficiency ([4]; extracts LSY386 (2 μg) + YELO37C (8 μg)): 1.85
- Relative Correction Efficiency ([4]; extracts LSY386 (4 μg) + LSY678 (6 μg)): 5.45
- Relative Correction Efficiency ([4]; extracts LSY386 (4 μg) + YELO37C (6 μg)): 3.71
- Relative Correction Efficiency ([4]; extracts LSY386 (6 μg) + LSY678 (4 μg)): 10.47
- Relative Correction Efficiency ([4]; extracts LSY386 (6 μg) + YELO37C (4 μg)): 9.22
- Relative Correction Efficiency ([4]; extracts LSY386 (8 μg) + LSY678 (2 μg)): 14.36
- Relative Correction Efficiency ([4]; extracts LSY386 (8 μg) + YELO37C (2 μg)): 16.95
- Relative Correction Efficiency ([4]; oligo only, no plasmid, no extract): 0.0
